Sequences and labels used below:
B1: GST-SNX17 (natural protein)
chain: MHFSIPETESRSGDSGGSAYVAYNIHVNGVLHCRVRYSQLLGLHEQLRKEYGANVLPAFPPKKLFSLTPAEVEQRREQLEKYMQAVRQDPLLGSSETFNSFLRRAQQETQQVPTEEVSLEVLLSNGQKVLVNVLTSDQTEDVLEAVAAKLDLPDDLIGYFSLFLVREKEDGAFSFVRKLQEFELPYVSVTSLRSQEYKIVLRKSYWDSAYDDDVMENRVGLNLLYAQTVSDIERGWILVTKEQHRQLKSLQEKVSKKEFLRLAQTLRHYGYLRFDACVADFPEKDCPVVVSAGNSELSLQLRLPGQQLREGSFRVTRMRCWRVTSSVPLPSGSTSSPGRGRGEVRLELAFEYLMSKDRLQWVTITSPQAIMMSICLQSMVDELMVKKSGGSIRKMLRRRVGGTLRRSDSQQAVKSPPLLESPDATRESMVKLSSKLSAVSLRGIGSPSTDASASDVHGNFAFEGIGDEDL
B2: untagged full-length SNX17 (natural protein)
chain: B1 chain

As a reminder, the Kd is the equilibrium constant for the complex coming apart.

In one experiment the target is T1, Retriever complex (VPS35L, VPS26C, VPS29) (human, UniProt Q7Z3J2;O14972;Q9UBQ0-2). Nature of the experiment: pull-down.
T1 sequence (Q7Z3J2 whole entry, chain 1 of 2): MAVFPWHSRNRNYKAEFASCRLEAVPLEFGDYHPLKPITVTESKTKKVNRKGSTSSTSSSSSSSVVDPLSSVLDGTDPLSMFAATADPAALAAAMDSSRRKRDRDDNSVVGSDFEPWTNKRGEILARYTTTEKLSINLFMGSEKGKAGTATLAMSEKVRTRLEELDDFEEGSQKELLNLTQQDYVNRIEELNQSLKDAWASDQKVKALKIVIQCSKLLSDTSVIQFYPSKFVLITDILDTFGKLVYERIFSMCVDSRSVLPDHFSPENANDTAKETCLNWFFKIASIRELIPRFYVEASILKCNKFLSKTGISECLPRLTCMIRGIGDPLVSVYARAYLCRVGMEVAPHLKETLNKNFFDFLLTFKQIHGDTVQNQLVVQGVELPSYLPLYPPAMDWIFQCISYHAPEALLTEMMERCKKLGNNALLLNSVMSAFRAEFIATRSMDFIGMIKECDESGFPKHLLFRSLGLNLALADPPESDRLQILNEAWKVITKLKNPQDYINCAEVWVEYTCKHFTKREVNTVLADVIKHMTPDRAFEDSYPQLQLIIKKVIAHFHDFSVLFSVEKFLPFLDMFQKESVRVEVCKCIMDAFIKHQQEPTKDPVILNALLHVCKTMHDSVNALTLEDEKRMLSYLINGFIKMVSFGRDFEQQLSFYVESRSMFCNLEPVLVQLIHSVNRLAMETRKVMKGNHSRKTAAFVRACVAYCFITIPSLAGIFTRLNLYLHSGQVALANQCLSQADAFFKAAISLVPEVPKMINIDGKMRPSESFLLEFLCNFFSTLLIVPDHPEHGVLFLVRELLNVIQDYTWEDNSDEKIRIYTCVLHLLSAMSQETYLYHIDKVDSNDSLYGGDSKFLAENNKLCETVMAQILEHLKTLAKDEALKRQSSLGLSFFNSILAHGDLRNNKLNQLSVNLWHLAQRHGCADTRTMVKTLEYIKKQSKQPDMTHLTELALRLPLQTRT
T1 sequence (O14972 whole entry, chain 2 of 2): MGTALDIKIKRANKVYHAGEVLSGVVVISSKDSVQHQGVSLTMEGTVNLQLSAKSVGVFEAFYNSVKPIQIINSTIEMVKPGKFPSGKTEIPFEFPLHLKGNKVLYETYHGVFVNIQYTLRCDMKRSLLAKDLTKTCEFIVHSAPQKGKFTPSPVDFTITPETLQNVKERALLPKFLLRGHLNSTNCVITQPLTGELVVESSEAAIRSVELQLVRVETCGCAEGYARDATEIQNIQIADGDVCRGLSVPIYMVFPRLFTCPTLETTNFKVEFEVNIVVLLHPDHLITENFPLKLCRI
Turning to B1, the binding result is on record as “binds”.

Take B2: the binding result is on record as “binds”.

Consider ASASDVHGNFAFEGVGDEDL [GST-SNX17 CT tail, −6 position to V], for which the binding result is recorded as “binds”.

Regarding SVYLVNFRCCRSHDLCNEDL [GST-tagged CT tail of PATE1 (last 20 amino acids)], the binding result is “binds”.

Regarding ASASDVHGNFAFEGIGNEDL [GST-SNX17 CT tail, −4 position to N], the binding result was “binds”.

For the molecule ASASDVHGNFAFEGIGQEDL [GST-SNX17 CT tail, −4 position to Q], the binding result was “binds”.

Take RYVYYGKNSEGNRFIRDDQL [GST-tagged CT tail of LRMDA (last 20 amino acids)]: the binding result was “binds”.

In the case of ASASDVHGNFAFEGLGDEDL [GST-SNX17 CT tail, −6 position to L], the binding result is on record as “binds”.

For SKIKIAKDDCVFGNIKEEDL [GST-tagged CT tail of SNX31 (last 20 amino acids)], the binding result was “binds”.

The next experiment concerns the target T1, Retriever complex (VPS35L, VPS26C, …). Kind of experiment: equilibrium pull-down.
On to ASASDVHGNFAFEGIGDEDL [GST-SNX17 CT (GST-tagged tail peptide, last 20 residues of SNX17)], for which the Kd is about 110 nM.

Values taken from PMC11589680 (Nature Communications, 2024).
